Reference: US10801046B2, “Methods and materials for biosynthesizing multifunctional, multivariate molecules via carbon chain modification” (INVISTA NORTH AMERICA S.A.R.L., priority 2016, dated 2020)

How the values were obtained:
[1] = system: heptanedioyl-[acp] or heptanedioyl-[acp] methyl ester; assay: Thioesterase enzyme activity assay, release of holo-ACP monitored by absorbance at 412 nm; assay type: biochemical; details: purified thioesterase, 37° C., 30 min, FIG. 41
Procedure: The thioesterases were expressed and purified following procedures disclosed herein. The enzyme activity assay was performed in duplicate or triplicate in a buffer having heptanedioyl-[acp] or heptanedioyl-[acp] methyl ester as substrate. The enzyme activity assay reaction was initiated by adding purified thioesterase gene products to the assay buffer and incubating at 37° C. for 30 min. The release of holo-ACP was monitored by absorbance at 412 nm. The absorbance associated with the empty vector control is very low. Many of the gene products of thioesterases accepted heptanedioyl-[acp] or heptanedioyl-[acp] methyl ester as substrate as confirmed via relative spectrophotometry (see FIG. 41).

[2] = system: heptanedioyl-ACP; assay type: cell-based, Escherichia coli; details: top 150 hits screened in vivo
[3] = Aminotransferase activity, N7-acetyl-1,7-diaminoheptane to N7-acetyl-7-aminoheptanal, L-alanine formation by RP-HPLC; assay type: biochemical; details: cell free extract, 10 mM substrate, 25° C., 4 h, against empty vector control, FIG. 51
Procedure: The activity of the N-terminal His-tagged aminotransferases of SEQ ID NOs: 116 (GenBank Accession No. AAQ59697.1), 119 (RefSeq Accession No. NP_417544.5), 125 (GenBank Accession No. AAGO8191.1), 126 (GenBank Accession No. AAY39893.1), 127 (GenBank Accession No. ABA81135.1), and 128 (GenBank Accession No. AEA39183.1) (see Example 6) for converting N7-acetyl-1,7-diaminoheptane to N7-acetyl-7-aminoheptanal was assayed using a buffer composed of a final concentration of 50 mM HEPES buffer (pH=7.5), 10 mM N7-acetyl-1,7-diaminoheptane, 10 mM pyruvate and 100 μM pyridoxyl 5′ phosphate. Each enzyme activity assay reaction was initiated by adding a cell free extract of the aminotransferases or the empty vector control to the assay buffer containing the N7-acetyl-1,7-diaminoheptane then incubated at 25° C. for 4 h, with shaking at 250 rpm. The formation of L-alanine was quantified via RP-HPLC.

[4] = Aminotransferase activity, heptane-1,7-diamine to 7-aminoheptanal, L-alanine formation by RP-HPLC; assay type: biochemical; details: cell free extract, 10 mM substrate, 25° C., 4 h, against empty vector control, FIG. 50
Procedure: A sequence encoding an N-terminal His-tag was added to the Chromobacterium violaceum, Pseudomonas aeruginosa, Pseudomonas syringae, Rhodobacter sphaeroides, Escherichia coli, and Vibrio fluvialis genes encoding the aminotransferases of SEQ ID NOs: 116 (GenBank Accession No. AAQ59697.1), 119 (RefSeq Accession No. NP_417544.5), 125 (GenBank Accession No. AAGO8191.1), 126 (GenBank Accession No. AAY39893.1), 127 (GenBank Accession No. ABA81135.1), and 128 (GenBank Accession No. AEA39183.1), respectively such that N-terminal HIS tagged aminotransferases could be produced. The modified genes were cloned into a pET21a expression vector under the T7 promoter. Each expression vector was transformed into a BL21[DE3] E. coli host. Each resulting recombinant E. coli strain were cultivated at 37° C. in a 250 mL shake flask culture containing 50 mL LB media and antibiotic selection pressure, with shaking at 230 rpm. Each culture was induced overnight at 16° C. using 1 mM IPTG.
The pellet from each induced shake flask culture was harvested via centrifugation. Each pellet was resuspended and lysed via sonication. The cell debris was separated from the supernatant via centrifugation and the cell free extract was used immediately in enzyme activity assays.
Enzyme activity assays in the reverse direction (i.e., heptane-1,7-diamine to 7-aminoheptanal) were performed in a buffer composed of a final concentration of 50 mM HEPES buffer (pH=7.5), 10 mM heptane-1,7-diamine, 10 mM pyruvate, and 100 μM pyridoxyl 5′ phosphate. Each enzyme activity assay reaction was initiated by adding cell free extract of the aminotransferase gene product or the empty vector control to the assay buffer containing the heptane-1,7-diamine and then incubated at 25° C. for 4 h, with shaking at 250 rpm. The formation of L-alanine was quantified via RP-HPLC.

| Molecule | synthesis of holo-ACP using heptanedioyl-[acp] methyl ester as substrate, compared to using heptanedioyl-[acp] as substrate [1] | activity toward heptanedioyl-ACP in vivo [2] | acceptance of N7-acetyl-1,7-diaminoheptane as substrate, forming N7-acetyl-7-aminoheptanal [3] | acceptance of heptane-1,7-diamine as substrate, forming 7-aminoheptanal [4] |
| --- | --- | --- | --- | --- |
| 14 TE: Paenibacillus lactis thioesterase (protein, Paenibacillus lactis 154, Paenibacillus lactis thioesterase) MVEKWTETYTIQSVDADFRGDCRWSSLLSIMQRAADKHIEALGIDREEMIERGLGWMLITLEADMTSIPRDMETIHVETWSRGSKGVLWHRDYRIMNDHGEQVGGARSVWTLVDIQKRKILRPSMFPYDVPIGQDSVGELPSKAVLPEGIELGEAYTTVVRYSGIDVNGHLNNARYADLCMDVLDEPELQGDKVTGFKITYNHEARLKDTIIVRRSGEIEGRIFVQGVSPEGTNFFEAALVKRKQ | more efficiently | – | – | – |
| 6TE: Lactobacillus delbrueckii thioesterase (protein, listed as Lactobacillus delbrueckii) MRYYKDYQLKYVDCGESGQLKLPRMIDLMMESSEGQLAPTLGGASAMKERGRGWVVTQYEFEFTSLPRAGQKVRVWTEAVGYNRFLSYRDFGIEDEAGKDLVIAHSQWVLFDLKSRKLLPSDDKIAEELGAPLLAKIPRFKKLRPKDDYKDEKVYRAYYYDLDSNHHVNNAHYLDWIVDSLPRDFVNSHEPKDLAIKFDKEIKYGDEVVCQVMQETEDSAVKTCHAITRQGELMALCEVNWQKMCFNRD | more efficiently | – | – | – |
| 11TE: Bacillus coagulans thioesterase (protein, Bacillus coagulans (strain 2-6), Bacillus coagulans thioesterase) MANGSSLYKGQYHIELRDVDFTKKLKLSALFSLFQDIASLAAEDLGYGIETLEKKYKVAWILTRIRVDILRHPTWDENITIETWPLQPSKIDFDRDFLVKDHTGAVIIKAASKWVVMGLNDRKIKRTESINIHYPENRTERAIEGKFGKFKDFGGLEPAYQKVIGYSDIDFNGHLNNSKYVDYIMDCFLPDFHKRHPIHTIEINFNQEALPGDSITLYKDISKMDEHELYVEGVNQTDHHTIFKSHITIH | more efficiently | displayed considerable activity toward heptanedioyl-ACP | – | – |
| SEQ ID NO: 125: Pseudomonas aeruginosa aminotransferase (protein, listed as Pseudomonas aeruginosa, Pseudomonas aeruginosa (strain ATCC 15692 / DSM 22644 / CIP 104116 / JCM 14847 / LMG 12228 / 1C / PRS 101 / PAO1), Pseudomonas aeruginosa aminotransferase) MNARLHATSPLGDADLVRADQAHYMHGYHVFDDHRVNGSLNIAAGDGAYIYDTAGNRYLDAVGGMWCTNIGLGREEMARTVAEQTRLLAYSNPFCDMANPRAIELCRKLAELAPGDLDHVFLTTGGSTAVDTAIRLMHYYQNCRGKRAKKHVITRINAYHGSTFLGMSLGGKSADRPAEFDFLDERIHHLACPYYYRAPEGLGEAEFLDGLVDEFERKILELGADRVGAFISEPVFGSGGVIVPPAGYHRRMWELCQRYDVLYISDEVVTSFGRLGHFFASQAVFGVQPDIILTAKGLTSGYQPLGACIFSRRIWEVIAEPDKGRCFSHGFTYSGHPVACAAALKNIEIIEREGLLAHADEVGRYFEERLQSLRDLPIVGDVRGMRFMACVEFVADKASKALFPESLNIGEWVHLRAQKRGLLVRPIVHLNVMSPPLILTREQVDTVVRVLRESIEETVEDLVRAGHR | – | – | accepted N7-acetyl-1,7-diaminoheptane as a substrate | accepted heptane-1,7-diamine as substrate |
| SEQ ID NO: 119: Escherichia coli aminotransferase, gene product of ygjG (protein, Escherichia coli (strain K12), Escherichia coli aminotransferase, gene product of ygjG) MNRLPSSASALACSAHALNLIEKRTLDHEEMKALNREVIEYFKEHVNPGFLEYRKSVTAGGDYGAVEWQAGSLNTLVDTQGQEFIDCLGGFGIFNVGHRNPVVVSAVQNQLAKQPLHSQELLDPLRAMLAKTLAALTPGKLKYSFFCNSGTESVEAALKLAKAYQSPRGKFTFIATSGAFHGKSLGALSATAKSTFRKPFMPLLPGFRHVPFGNIEAMRTALNECKKTGDDVAAVILEPIQGEGGVILPPPGYLTAVRKLCDEFGALMILDEVQTGMGRTGKMFACEHENVQPDILCLAKALGGGVMPIGATIATEEVFSVLFDNPFLHTTTFGGNPLACAAALATINVLLEQNLPAQAEQKGDMLLDGFRQLAREYPDLVQEARGKGMLMAIEFVDNEIGYNFASEMFRQRVLVAGTLNNAKTIRIEPPLTLTIEQCELVIKAARKALAAMRVSVEEA | – | – | accepted N7-acetyl-1,7-diaminoheptane as a substrate | accepted heptane-1,7-diamine as substrate |
| 5TE: Lactobacillus brevis thioesterase (protein, Lactobacillus brevis (strain ATCC 367 / JCM 1170), Lactobacillus brevis thioesterase) MAANEFSETHRVVYYEADDTGQLTLAMLINLFVLVSEDQNDALGLSTAFVQSHGVGWVVTQYHLHIDELPRTGAQVTIKTRATAYNRYFAYREYWLLDDAGQVLAYGEGIWVTMSYATRKITTIPAEVMAPYHSEEQTRLPRLPRPDHFDEAVNQTLKPYTVRYFDIDGNGHVNNAHYFDWMLDVLPATFLRAHHPTDVKIRFENEVQYGHQVTSELSQAAALTTQHMIKVGDLTAVKATIQWDNR | more efficiently | – | – | – |
